The target of test [1] is T1, Fibulin-4, full length (UniProt O95967 24-443, biotin (biotinylated ligand on streptavidin biosensors, position not stated)).
T1 construct: full-length fibulin-4; source: expressed and purified as previously described (Choudhury et al., 2009)
T1 sequence (looked up): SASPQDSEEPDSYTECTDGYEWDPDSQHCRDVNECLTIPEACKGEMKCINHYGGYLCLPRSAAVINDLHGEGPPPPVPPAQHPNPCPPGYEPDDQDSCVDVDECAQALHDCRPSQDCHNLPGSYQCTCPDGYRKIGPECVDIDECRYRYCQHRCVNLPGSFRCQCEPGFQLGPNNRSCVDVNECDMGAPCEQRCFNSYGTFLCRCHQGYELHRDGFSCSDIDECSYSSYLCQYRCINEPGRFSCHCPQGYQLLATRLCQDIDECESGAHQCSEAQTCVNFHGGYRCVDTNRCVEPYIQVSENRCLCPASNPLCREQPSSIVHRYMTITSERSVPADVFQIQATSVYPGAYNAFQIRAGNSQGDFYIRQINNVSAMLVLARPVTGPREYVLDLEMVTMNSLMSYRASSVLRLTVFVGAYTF
Description: BLI; OctetRED96, immobilised full-length fibulin-4, NWT or C274G 1000-62.5 nM, 10 mM HEPES, 150 mM NaCl, pH 7.4, 0.005% Tween-20, 25°C; steady state analysis. On the technique in general: Biolayer interferometry detects binding as a change in optical thickness at a sensor tip.

The target of test [2] is Latent TGFβ binding protein-4 (LTBP4S) C-terminal region, ARCL1C mutant C1286S (human). Description: SPR; ProteOn, LTBP4 C-terminal constructs amine-coupled on GLC chip, fibrillin-1 PF3 injected 100-3.1 nM, 10 mM HEPES, 150 mM NaCl, pH 7.4, 0.005% Tween-20, 25°C; steady state (equilibrium) analysis. On the technique in general: SPR reads the build-up and loss of mass on a sensor chip optically.

Test [3] deals with Tropoelastin (SHELdelta26A). Description: BLI; OctetRED96, biotinylated tropoelastin on streptavidin biosensors, LTBP4 C-terminal constructs 375-23.4 nM, 10 mM HEPES, 150 mM NaCl, pH 7.4, 0.005% Tween-20, 25°C; steady state analysis.
In test [4] the target is T2, Tropoelastin (SHELdelta26A) (biotin where immobilised on streptavidin biosensors (position not given)).
T2 chain: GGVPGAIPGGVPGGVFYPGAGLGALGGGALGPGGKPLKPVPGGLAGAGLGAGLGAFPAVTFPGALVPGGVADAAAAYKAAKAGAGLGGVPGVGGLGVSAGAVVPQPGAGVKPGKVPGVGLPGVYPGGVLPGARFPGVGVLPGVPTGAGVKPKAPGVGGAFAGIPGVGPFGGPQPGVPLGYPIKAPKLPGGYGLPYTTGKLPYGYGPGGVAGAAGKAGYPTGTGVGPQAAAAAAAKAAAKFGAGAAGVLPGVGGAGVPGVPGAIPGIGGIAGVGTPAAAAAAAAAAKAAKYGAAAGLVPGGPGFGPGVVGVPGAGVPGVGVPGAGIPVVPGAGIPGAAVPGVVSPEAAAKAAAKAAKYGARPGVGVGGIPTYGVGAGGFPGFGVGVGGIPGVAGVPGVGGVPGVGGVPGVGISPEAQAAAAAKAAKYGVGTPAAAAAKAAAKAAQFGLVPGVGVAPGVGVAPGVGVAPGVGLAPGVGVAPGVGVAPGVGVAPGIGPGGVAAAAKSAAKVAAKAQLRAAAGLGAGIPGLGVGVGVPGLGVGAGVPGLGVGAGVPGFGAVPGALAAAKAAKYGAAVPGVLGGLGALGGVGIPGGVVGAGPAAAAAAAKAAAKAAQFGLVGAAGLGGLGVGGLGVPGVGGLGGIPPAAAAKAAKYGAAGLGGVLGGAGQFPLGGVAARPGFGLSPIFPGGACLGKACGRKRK
Description: BLI.

For test [5], the target named is T3, Fibrillin-1 PF3 fragment (UniProt P35555 45-722).
T3 construct: signal peptide in the construct; fibrillin-1 PF3 fragment, residues 1-722 (Rock et al., 2004); also called N-terminal region of fibrillin-1; source: purified
T3 sequence (P35555 45-722): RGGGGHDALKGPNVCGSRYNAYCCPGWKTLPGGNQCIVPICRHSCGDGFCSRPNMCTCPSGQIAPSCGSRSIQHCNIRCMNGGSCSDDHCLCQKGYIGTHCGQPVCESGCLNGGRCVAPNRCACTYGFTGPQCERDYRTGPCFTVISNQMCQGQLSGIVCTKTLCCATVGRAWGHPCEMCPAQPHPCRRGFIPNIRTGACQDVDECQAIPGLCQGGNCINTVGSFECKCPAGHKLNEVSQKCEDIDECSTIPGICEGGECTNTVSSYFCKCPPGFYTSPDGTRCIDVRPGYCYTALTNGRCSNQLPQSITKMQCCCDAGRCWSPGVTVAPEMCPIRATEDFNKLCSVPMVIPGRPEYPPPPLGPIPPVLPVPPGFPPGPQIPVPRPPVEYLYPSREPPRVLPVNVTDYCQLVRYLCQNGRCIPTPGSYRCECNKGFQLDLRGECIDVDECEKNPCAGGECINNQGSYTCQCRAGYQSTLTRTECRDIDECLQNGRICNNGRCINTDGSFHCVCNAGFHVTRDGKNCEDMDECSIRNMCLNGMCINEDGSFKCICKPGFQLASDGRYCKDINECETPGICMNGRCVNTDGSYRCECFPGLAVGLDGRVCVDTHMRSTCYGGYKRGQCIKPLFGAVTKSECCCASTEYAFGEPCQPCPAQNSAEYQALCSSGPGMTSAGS
Description: SPR; ProteOn, LTBP4 C-terminal constructs amine-coupled on GLC chip, fibrillin-1 PF3 injected 100-3.1 nM, 10 mM HEPES, 150 mM NaCl, pH 7.4, 0.005% Tween-20, 25°C; steady state (equilibrium) analysis. Particulars: both partners purified.

Where two headings read alike, the source gives them in different places.

For orientation: Kd means the concentration at which binding is half-saturated. Lower therefore signals a tighter complex.

As for “Latent TGFβ binding protein-4 (LTBP4S) N-terminal region, ARCL1C mutant C274G (domain or fragment)”, the Kd in test [1] was determined as 177 nM.
Molecule “Fibrillin-1 PF3 fragment (from UniProt P35555 45-722) (domain or fragment)” yielded a Kd in test [2] of 12.2 nM.

B1: Latent TGFβ binding protein-4 (LTBP4S) C-terminal region, wild type (domain or fragment, human, UniProt Q8N2S1-2 1114-1557, looked up)
chain: RECYFDTAAPDACDNILARNVTWQECCCTVGEGWGSGCRIQQCPGTETAEYQSLCPHGRGYLAPSGDLSLRRDVDECQLFRDQVCKSGVCVNTAPGYSCYCSNGYYYHTQRLECIDNDECADEEPACEGGRCVNTVGSYHCTCEPPLVLDGSQRRCVSNESQSLDDNLGVCWQEVGADLVCSHPRLDRQATYTECCCLYGEAWGMDCALCPAQDSDDFEALCNVLRPPAYSPPRPGGFGLPYEYGPDLGPPYQGLPYGPELYPPPALPYDPYPPPPGPFARREAPYGAPRFDMPDFEDDGGPYGESEAPAPPGPGTRWPYRSRDTRRSFPEPEEPPEGGSYAGSLAEPYEELEAEECGILDGCTNGRCVRVPEGFTCRCFDGYRLDMTRMACVDINECDEAEAASPLCVNARCLNTDGSFRCICRPGFAPTHQPHHCAPARPRA
notes: numbers count on: LTBP4S; N-glycosylated (PNGase-F shift); also called CWT; C WT
Take B1: the results for the Kd in test [3], in test [4] and in test [5] were 57 nM, 6.4 nM and 15.8 nM, respectively.

B2: Latent TGFβ binding protein-4 (LTBP4S) C-terminal region, ARCL1C mutant C1286S (domain or fragment)
chain: RECYFDTAAPDACDNILARNVTWQECCCTVGEGWGSGCRIQQCPGTETAEYQSLCPHGRGYLAPSGDLSLRRDVDECQLFRDQVCKSGVCVNTAPGYSCYCSNGYYYHTQRLECIDNDECADEEPACEGGRCVNTVGSYHCTSEPPLVLDGSQRRCVSNESQSLDDNLGVCWQEVGADLVCSHPRLDRQATYTECCCLYGEAWGMDCALCPAQDSDDFEALCNVLRPPAYSPPRPGGFGLPYEYGPDLGPPYQGLPYGPELYPPPALPYDPYPPPPGPFARREAPYGAPRFDMPDFEDDGGPYGESEAPAPPGPGTRWPYRSRDTRRSFPEPEEPPEGGSYAGSLAEPYEELEAEECGILDGCTNGRCVRVPEGFTCRCFDGYRLDMTRMACVDINECDEAEAASPLCVNARCLNTDGSFRCICRPGFAPTHQPHHCAPARPRA
In the case of B2, the Kd was 151 nM in test [3] and 65 nM in test [4].

B3: Latent TGFβ binding protein-4 (LTBP4S) N-terminal region, wild type (domain or fragment, human, UniProt Q8N2S1-2 29-394, looked up)
chain: GERLRVRFTPVVCGLRCVHGPTGSRCTPTCAPRNATSVDSGAPGGAAPGGPGFRAFLCPLICHNGGVCVKPDRCLCPPDFAGKFCQLHSSGARPPAPAVPGLTRSVYTMPLANHRDDEHGVASMVSVHVEHPQEASVVVHQVERVSGPWEEADAEAVARAEAAARAEAAAPYTVLAQSAPREDGYSDASGFGYCFRELRGGECASPLPGLRTQEVCCRGAGLAWGVHDCQLCSERLGNSERVSAPDGPCPTGFERVNGSCEDVDECATGGRCQHGECANTRGGYTCVCPDGFLLDSSRSSCISQHVISEAKGPCFRVLRDGGCSLPILRNITKQICCCSRVGKAWGRGCQLCPPFGSEGFREICPA
notes: numbers count on: LTBP4S; N-glycosylated (PNGase-F shift); Biotinylated when immobilised on streptavidin biosensors in the fibronectin BLI experiment (general BLI methods); also called NWT; LTBP4 N-terminal region
For B3, binding in test [1] (both partners purified) was put at a Kd of 1290 nM.

(Values after publication PMC8446450, “Autosomal Recessive Cutis Laxa 1C Mutations Disrupt the Structure and Interactions of Latent TGFβ Binding Protein-4” (Frontiers in Genetics, 2021).)
